Experiments:
human TNF-α (human) = human TNF-α (human) (UniProt P01375)
[1] = target: TNFRII-Trimer fusion protein (homotrimeric soluble human TNF receptor II fused to the Trimer-Tag, the C-propeptide of human α1(III) collagen) (human) (UniProt P20333); assay: SEC + other: non-reducing SDS-PAGE; purified TNFRII-Trimer on 10% SDS-PAGE under non-reducing or reducing conditions (Coomassie; Western blot under non-reducing conditions too) and SEC-HPLC (Sepax Zenix-C SEC-300, OD280), TNFRII-Fc as dimeric control

UniProt P01375, sequence (P01375 77-233): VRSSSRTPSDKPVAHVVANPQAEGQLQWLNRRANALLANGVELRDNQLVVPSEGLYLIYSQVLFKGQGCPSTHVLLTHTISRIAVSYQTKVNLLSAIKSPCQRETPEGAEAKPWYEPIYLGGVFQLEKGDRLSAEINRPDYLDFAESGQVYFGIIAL

Substance | IC50 of neutralisation of TNF-α (2.5 ng/mL)-induced cytotoxicity in L929 cells, MTT assay, molar basis (human TNF-α (human)) [nM] | IC50 of neutralisation of TNF-α (2.5 ng/mL)-induced cytotoxicity in L929 cells, MTT assay, weight basis (human TNF-α (human)) [mg/L] | stoichiometry N [1]
TNFRII-Fc (dimeric soluble human TNFRII receptor-Fc fusion) (from UniProt P20333 23-257) | 0.0986 | 0.0101 | 
TNFRII-Trimer fusion protein (homotrimeric soluble human TNF receptor II fused to the Trimer-Tag, the C-propeptide of human α1(III) collagen) (from UniProt P20333 23-256) |  |  | 3

Source: PMC5943350
